Assays:
Assay in all cases: EC50 of free RNA motif oligo competing protein binding to immobilised probe
PRPF3 = biological target: T1, PRPF3 (UniProt O43395)
T1 sequence: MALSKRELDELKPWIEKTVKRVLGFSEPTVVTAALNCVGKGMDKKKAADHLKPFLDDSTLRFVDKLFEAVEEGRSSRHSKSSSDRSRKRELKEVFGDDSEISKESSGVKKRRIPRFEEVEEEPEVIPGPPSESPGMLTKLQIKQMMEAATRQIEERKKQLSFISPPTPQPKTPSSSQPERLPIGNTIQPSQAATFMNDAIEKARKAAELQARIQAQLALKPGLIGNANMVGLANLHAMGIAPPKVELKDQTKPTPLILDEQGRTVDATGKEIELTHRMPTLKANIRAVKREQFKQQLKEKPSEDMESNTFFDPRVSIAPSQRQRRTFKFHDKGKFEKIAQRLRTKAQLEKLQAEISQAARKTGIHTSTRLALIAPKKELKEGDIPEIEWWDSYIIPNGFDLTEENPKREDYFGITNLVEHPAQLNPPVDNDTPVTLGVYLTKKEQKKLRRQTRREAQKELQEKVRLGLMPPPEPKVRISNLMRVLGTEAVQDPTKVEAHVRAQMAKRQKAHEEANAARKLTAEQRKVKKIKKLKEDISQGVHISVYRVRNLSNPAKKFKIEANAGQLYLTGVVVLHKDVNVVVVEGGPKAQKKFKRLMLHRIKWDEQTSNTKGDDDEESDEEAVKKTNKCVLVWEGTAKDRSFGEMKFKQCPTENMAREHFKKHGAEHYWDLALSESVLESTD
How it was run: (§1)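 Free RNA oligos (0 nM to 30 μM) were pre-incubated with HEK293-FT lysate (2.5 mg protein/well) for 1 h at 4°C, followed by 30 min at 4°C with the same 5′-amino-C6 oligos coupled to NHS-Sepharose beads. Bound proteins were quantified by label-free LC-MS/MS and normalised to the control. EC50 was derived from a four-parameter log-logistic fit, and Kd was obtained by multiplying EC50 by a protein-dependent depletion factor.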

SRSF7 = biological target: T2, SRSF7 (UniProt Q16629)
T2 sequence: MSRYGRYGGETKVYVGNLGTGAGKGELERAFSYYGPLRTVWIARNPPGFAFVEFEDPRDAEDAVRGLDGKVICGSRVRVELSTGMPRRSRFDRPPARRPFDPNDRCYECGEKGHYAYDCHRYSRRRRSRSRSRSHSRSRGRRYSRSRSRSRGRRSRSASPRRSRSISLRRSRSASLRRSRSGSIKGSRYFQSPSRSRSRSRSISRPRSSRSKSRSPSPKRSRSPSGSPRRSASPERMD
How it was run: as §1

MRPL21 = MRPL21 (UniProt Q7Z2W9)
How it was run: as §1

TSNAX = biological target: T3, TSNAX (UniProt Q99598)
T3 sequence: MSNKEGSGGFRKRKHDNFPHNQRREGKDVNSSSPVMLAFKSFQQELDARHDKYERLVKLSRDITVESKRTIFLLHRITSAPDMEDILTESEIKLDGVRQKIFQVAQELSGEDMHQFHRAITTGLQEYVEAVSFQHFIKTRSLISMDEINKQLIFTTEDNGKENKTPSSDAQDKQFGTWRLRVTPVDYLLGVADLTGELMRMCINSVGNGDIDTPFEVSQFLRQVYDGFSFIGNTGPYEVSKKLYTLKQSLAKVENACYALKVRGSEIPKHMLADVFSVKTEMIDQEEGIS
How it was run: as §1

RPS17 = RPS17 (UniProt P08708)
How it was run: as §1

HNRNPR = biological target: T4, HNRNPR (UniProt O43390)
T4 sequence: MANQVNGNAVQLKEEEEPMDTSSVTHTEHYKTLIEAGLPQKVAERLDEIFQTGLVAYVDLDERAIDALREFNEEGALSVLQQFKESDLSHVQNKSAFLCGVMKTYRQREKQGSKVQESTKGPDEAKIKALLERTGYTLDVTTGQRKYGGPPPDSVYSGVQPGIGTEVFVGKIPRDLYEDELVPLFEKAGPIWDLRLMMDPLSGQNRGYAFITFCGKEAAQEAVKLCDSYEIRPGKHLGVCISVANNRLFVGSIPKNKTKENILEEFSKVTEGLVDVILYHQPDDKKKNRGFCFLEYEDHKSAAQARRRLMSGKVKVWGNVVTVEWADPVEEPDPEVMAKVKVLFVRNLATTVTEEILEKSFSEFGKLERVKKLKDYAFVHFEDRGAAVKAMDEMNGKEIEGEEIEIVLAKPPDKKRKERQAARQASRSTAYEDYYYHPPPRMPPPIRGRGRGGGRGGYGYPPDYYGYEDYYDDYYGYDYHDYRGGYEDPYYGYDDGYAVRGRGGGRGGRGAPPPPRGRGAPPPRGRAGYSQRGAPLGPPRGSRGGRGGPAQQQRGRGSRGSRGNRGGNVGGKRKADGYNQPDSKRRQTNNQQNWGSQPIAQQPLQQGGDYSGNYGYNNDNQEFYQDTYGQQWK
How it was run: as §1

For UAUUUAU, the EC50 (PRPF3) was 7130 nM.
Work on CUGUCCU yielded an EC50 (SRSF7) of 3020 nM and an EC50 (MRPL21) of 151 nM.
For AAUAAA, the EC50 (TSNAX) was 30.5 nM, the EC50 (RPS17) was 128 nM and the EC50 (HNRNPR) was 2840 nM.
